pKd: −log10 of the molar value.
Biological target: Fluorescently labeled ATS (intracellular segment) of PfEMP1 variant PF08_0141, full-length segment (P. falciparum)
Assay: fluorescence polarisation

How did the pKd turn out when “PFE1605w PHIST domain (residues 122–335) (domain or fragment)” was run?
The pKd was 5.30.
